From PMC8125234, “Cardiolipin Stabilizes and Increases Catalytic Efficiency of Carnitine Palmitoyltransferase II and Its Variants S113L, P50H, and Y479F” (International Journal of Molecular Sciences, 2021)
Numbering of substitutions follows the chain as printed. In names and notes the source's numbering stands. Several values for one entry are separate records, joined by “and”; a condition that tells them apart may be missing. Identical values can stand only once.

B1: CPT II WT (Homo sapiens) (protein)
chain: SAGSGPGQYLQRSIVPTMHYQDSLPRLPIPKLEDTIRRYLSAQKPLLNDGQFRKTEQFCKSFENGIGKELHEQLVALDKQNKHTSYISGPWFDMYLSARDSVVLNFNPFMAFNPDPKSEYNDQLTRATNMTVSAIRFLKTLRAGLLEPEVFHLNPAKSDTITFKRLIRFVPSSLSWYGAYLVNAYPLDMSQYFRLFNSTRLPKPSRDELFTDDKARHLLVLRKGNFYIFDVLDQDGNIVSPSEIQAHLKYILSDSSPAPEFPLAYLTSENRDIWAELRQKLMSSGNEESLRKVDSAVFCLCLDDFPIKDLVHLSHNMLHGDGTNRWFDKSFNLIIAKDGSTAVHFEHSWGDGVAVLRFFNEVFKDSTQTPAVTPQSQPATTDSTVTVQKLNFELTDALKTGITAAKEKFDATMKTLTIDCVQFQRGGKEFLKKQKLSPDAVAQLAFQMAFLRQYGQTVATYESCSTAAFKHGRTETIRPASVYTKRCSEAFVREPSRHSAGELQQMMVECSKYHGQLTKEAAMGQGFDRHLFALRHLAAAKGIILPELYLDPAYGQINHNVLSTSTLSSPAVNLGGFAPVVSDGFGVGYAVHDNWIGCNVSSYPGRNAREFLQCVEKALEDMFDALEGKSIKS
notes: made in house; host or cells: Escherichia coli BL21Gold DE
B2: CPT II variant Y479F (Homo sapiens; Y479F) (protein)
chain: B1 chain with Y454F
notes: as for B1
B3: CPT II variant S113L (Homo sapiens; S113L) (protein)
chain: B1 chain with S88L
notes: as for B1

Columns and labels:
[1] = substrate: C[N+](C)(C)C[C@H](O)CC(=O)[O-]; assay: Determination of the kinetic parameters kcat and KM; format: biochemical, human; details: L-carnitine varied, absence of CL, 25 °C
Protocol: Before activity measurements, the storage buffer of the enzymes was replaced with assay buffer (50 mM KH2PO4, 120 mM KCl, 1 mM EDTA-Na4) using vivaspin turbo 4 tubes (Satorius Stedim biotech GmbH, Göttingen, Germany) at 4 °C. The pH of assay buffer was adjusted with KOH to 7.4. The storage buffer was diluted at least 1:500 in assay buffer. In addition, before each experimental set up, the protein samples were centrifuged at 16,000× g for 5 min at 4 °C to remove any micro-aggregates. After that, the protein concentration was determined using bicinchoninic acid (BCA) protein assay kit (Thermo Fisher Scientific GmbH, Berlin, Germany). The enzyme activity of recombinant CPT II was performed following Rufer et al. with modifications described elsewhere. […] After pre-conditioning the mixture to 25 °C for 2 min, the reaction was started by adding 15 nM of recombinant enzyme. The reverse reaction of CPT II was detected with the enzyme activity assay. CPT II catalyzed the transfer of fatty acid residue from Pal-CoA to L-carnitine with release of CoA and Pal-carnitine. The released CoA was then detected by the reaction of the free thiol group with DTNB, forming 5-mercapto-(2-nitrobenzoic acid). This compound has a molar extinction coefficient of 13,600 M^−1 cm^−1 at a wavelength of 410 nm, and its formation was followed spectroscopically. […] The slope of the progress curve was used to determine the reaction velocity.
It is assumed that the reaction catalyzed by CPT II represents a ping-pong mechanism or compulsory order ternary-complex mechanism.
The kinetic parameters were determined by evaluating the obtained v/S characteristic according to the Michaelis–Menten Equation (1). The […] kcat was calculated using Equation (2):(1) v=Vmax∗[S]/KM+[S] (2) kcat=Vmax/cenzyme

[2] = Onset of aggregation by scattered light back reflection during heating ramp; format: physicochemical; details: assay buffer; heating ramp 15 °C to 80 °C
Protocol: Supplementary materials can be found at https://www.mdpi.com/article/10.3390/ijms22094831/s1, Figure S1: Scattered light back reflection as measure for aggregation during the heating ramp from 15 °C to 80 °C of CPT II WT (black) and the variants P50H (red), S113L (blue) and Y479F (green) in assay buffer (magenta). The light scattering data were obtained simultaneously with nanoDSF data using the back reflection technology in a Prometheus NT.48 device. The unfolding of proteins leads to display of hydrophobic regions of the protein on the surface, which is followed by hydrophobic interaction of the protein molecules resulting in aggregation events. These aggregates are then detected via light scattering. […] The data allow the detection of onset of aggregation (Tagg) which differs clearly among the variants. The Tagg for WT is 38 °C, Y479F is 37 °C, S113L is 35 °C and P50H is 32 °C. […] Figure S2: The first derivatives of the transition curves of WT and the variants resulting from the ratio 350/330 nm were plotted against the temperature. The black, red, blue and green solid lines show the curves of WT and variants P50H, S113L and Y479F measured in assay buffer, respectively. The black, red, blue and green dashed lines show the maxima of the values of the first derivatives of the ratio 350 nm/330 nm of WT and variants P50H, S113L and Y479F, respectively. Figure S3: The effect of amino acid exchange in absence and presence of n-octyl-β-d-glucopyranoside (β-OG) on the stability of CPT II (1 mg/mL) assessed by nanoDSF. The TM of WT (37 °C) in buffer was used as reference value (ΔTM = 0 °C) to determine the ΔTM for the variants and the ΔTM for WT and variants in presence of β- OG. Error bars are SD derived from three independent experiments. Table S1. Comparison of the mean values of the half-lives (t1/2) of CPT II WT and the variants at 30 °C with the half-lives at 37, 40 or 42 °C. The differences of the half-lives for each CPT II enzyme between 37 and 40 or 42 °C as well as 40 and 42 °C are not significant. Number of experiments for each variant (n ≥ 3). Table S2. Comparison of the mean values of the half-lives (t1/2) between CPT II WT and the variants Y479F, S113L and P50H at 30, 37, 40 or 42 °C. n ≥ 3. Table S3. […] Comparison of the ∆TM-values of CPT II WT and the variants Y479F, S113L and P50H in buffer or in presence of 0.25 mM cardiolipin or 1% n-octyl-β-d-glucopyranoside (β-OG) assessed by nanoDSF (n ≥ 3). […] Comparison of the transition temperatures (TM) of WT and the variants Y479F, S113L and P50H in buffer with of 0.25 mM cardiolipin or 1% n-octyl-β-d-glucopyranoside (β-OG) assessed by nanoDSF (n ≥ 3). […]

[3] = nanoDSF thermostability of recombinant CPT II enzymes in assay buffer; format: physicochemical; details: for TM in Buffer: assay buffer, 1 mg/mL protein, nanoDSF; for ∆TM in Buffer: reference TM of WT in buffer (ΔTM = 0 °C)
Protocol: The protein stability was investigated applying nano differential scanning fluorimetry (nanoDSF) using a protein concentration of 1 mg/mL in assay buffer. […] The heating rate has been set to 1 °C per min. A heating ramp from 15 to 95 °C was determined. The nanoDSF data were obtained using a Prometheus NT.48 device. First derivatives were calculated using PR.ThermControl software (NanoTemper Technologies GmbH, Munich, Germany). Experiments were performed at least three times independently as double determination.

| Molecule | Km ([1]; other: WT) [mM] | kcat ([1]; other: WT) [s⁻¹] | kcat/Km ([1]; other: WT) [M⁻¹ s⁻¹] | Onset of aggregation (Tagg) [2] [°C] | TM in Buffer [3] | ∆TM in Buffer [3] [°C] | Km ([1]; other: Y479F) [mM] | kcat ([1]; other: Y479F) [s⁻¹] | kcat/Km ([1]; other: Y479F) [M⁻¹ s⁻¹] | Km ([1]; other: S113L) [mM] | kcat ([1]; other: S113L) [s⁻¹] | kcat/Km ([1]; other: S113L) [M⁻¹ s⁻¹] |
| --- | --- | --- | --- | --- | --- | --- | --- | --- | --- | --- | --- | --- |
| B1 | 15.1 ± 3.4 | 149 ± 11.1 | 9800 ± 1600 | 38 | 36.9 ± 1.0 °C and 37 °C | 0.0 ± 1.0 |  |  |  |  |  |  |
| B2 |  |  |  | 37 | 36.2 ± 1.2 °C | -0.74 ± 1.2 | 17.4 ± 4.4 | 140 ± 18.5 | 8100 ± 1100 |  |  |  |
| B3 |  |  |  | 35 |  | -3.1 ± 0.7 |  |  |  | 15.5 ± 2.3 | 144 ± 5 | 9300 ± 1400 |
